From patent US20170114420, “[…] WITH BINDING AFFINITY TO NOROVIRUS” (North Carolina State University, published 2017)

How the values were obtained:
[1] = molecular target: Norovirus GI.1 (Norwalk) VLP, capsid protein VP1 (Norwalk virus (Norovirus GI.1), UniProt Q83884 Q83884:1-530); assay: ELONA; 1 uM aptamer, RT; <2 is negative; conditions: label: 5' biotin
[2] = molecular target: T1, Norovirus GII.2 (Snow Mountain virus) VLP, capsid protein VP1 (Snow Mountain virus (Norovirus GII.2), UniProt Q80RD6 Q80RD6:1-542); assay: ELONA; ELASA, RT, 3 ug/ml VLP; T/N 12.9 at 1 uM (Table 5); conditions: chain copies: 180, label: 5' biotin
[3] = molecular target: T1, Norovirus GII.2 (Snow Mountain virus) …; assay: ELONA; conditions: chain copies: 180
[4] = molecular target: T1, Norovirus GII.2 (Snow Mountain virus) …; assay: ELONA; ELASA, RT, 3 ug/ml VLP; T/N 18.1 at 1 uM (Table 5); conditions: chain copies: 180, label: 5' biotin
[5] = molecular target: T1, Norovirus GII.2 (Snow Mountain virus) …; assay: ELONA; ELASA, RT, 3 ug/ml VLP; T/N 4.1 at 1 uM (Table 5); conditions: chain copies: 180, label: 5' biotin
[6] = molecular target: T1, Norovirus GII.2 (Snow Mountain virus) …; assay: ELONA; ELASA, RT, 3 ug/ml VLP; T/N 12.4 at 1 uM (Table 5); conditions: chain copies: 180, label: 5' biotin

B1: SMV-19 (ssDNA)
DNA: AGTATACGTATTACCTGCAGCCACCAGTGTGTTGAGGTTTGAGCACACTGATAGAGTGTCACGATATCTCGGAGATCTTGC
Question: Does B1 bind [1]?
Answer: Result: binds

Question: What about the Kd [2] of the same binder?
Answer: Its Kd is about 191 nM.

B2: M1 (ssDNA)
DNA: AGTATACGTATTACCTGCAGCTGTTTATGGGGATAAACGTATCTAATTCGTGTACTAATCACGATATCTCGGAGATCTTGC
Question: B2 was tested. Which binding signal [3] did it give?
Answer: Its binding signal is 10.7 VLP/no VLP ratio.

B3: SMV-21 (ssDNA)
DNA: AGTATACGTATTACCTGCAGCCCATGTTTTGTAGGTGTAATAGGTCATGTTAGGGTTTCTGCGATATCTCGGAGATCTTGC
Question: B3 was tested. Which Kd [4] did it give?
Answer: Its Kd is about 101 nM.

B4: SMV-26 (ssDNA)
DNA: AGTATACGTATTACCTGCAGCTGACCGAGTGTCTGGTCATTTTCGATGTCTGTTGTTAGGCCGATATCTCGGAGATCTTGC
Question: B4 was tested. Which Kd [5] did it give?
Answer: The Kd was about 281 nM.

B5: M6-2 (ssDNA)
DNA: AGTATACGTATTACCTGCAGCTGGGAAGAGGTCCGGTAAATGCAGGGTCAGCCCGGAGAGCGATATCTCGGAGATCTTGC
Question: How did the binding signal [3] turn out when B5 was run?
Answer: The binding signal was 12 VLP/no VLP ratio.

B6: SMV-25 (ssDNA)
DNA: AGTATACGTATTACCTGCAGCCATCTGTGTGAAGACTATATGGCGCTCACATATTTCTTTCCGATATCTCGGAGATCTTGC
Question: B6 was tested. Which Kd [6] did it give?
Answer: Its Kd is about 232 nM.
